B1: humanized anti-human Mpl antibody hVB22B u2-wz4 sc(Fv)2 (bulk, before separation of the structural isomers) (scFv, from another filing)
chain: QVQLVQSGPEVKKPGASVKVSCKASGYTFTNSWMNWVRQRPGKGLEWIGRIYPGDGETIYNGKFRVRVTITADESTSTAYMQLSSLRSEDTAVYYCARGYDDYSFAYWGQGTTVTVSSGGGGSGGGGSGGGGSDIVMTQSPLSLPVTPGEPASISCRSSKSLLHSNGNTYLYWFLQKPGQSPQLLIYRMSNLASGVPDRFSGSGSGTDFTLKISRVEAEDVGVYYCMQHIEYPFTFGQGTKLEIKGGGGSGGGGSGGGGSQVQLVQSGPEVKKPGASVKVSCKASGYTFTNSWMNWVRQRPGKGLEWIGRIYPGDGETIYNGKFRVRVTITADESTSTAYMQLSSLRSEDTAVYYCARGYDDYSFAYWGQGTTVTVSSGGGGSGGGGSGGGGSDIVMTQSPLSLPVTPGEPASISCRSSKSLLHSNGNTYLYWFLQKPGQSPQLLIYRMSNLASGVPDRFSGSGSGTDFTLKISRVEAEDVGVYYCMQHIEYPFTFGQGTKLEIK
B2: hVB22B u2-wz4 sc(Fv)2 peak2 (single chain diabody type structural isomer) (scFv, from another filing)
chain: B1 chain
B3: hVB22B u2-wz4 sc(Fv)2 peak1 (bivalent scFv type structural isomer) (scFv, from another filing)
chain: B1 chain

Target: MG10 (Gln213 to Ala231 of the human Mpl amino acid sequence) and GST fusion protein (human) (UniProt P40238)
Assay: SPR, Biacore 3000, MG10-GST amine-coupled on CM5, sc(Fv)2 at about 5-150 nM as analyte, bivalent analyte model

Row | Kd | Binder
1 | 10.2 nM | B1
2 | 9.92 nM | B2
3 | 12.4 nM | B3
